Measurements taken from patent US20200399332A1 (published 2020).
Positions count from the first letter of the chain named.

B1: mutant human AIM 2CS (cysteine 168 of SEQ ID NO: 1 substituted with serine) (other)
chain: VRLVGGLHRCEGRVEVEQKGQWGTVCDDGWDIKDVAVLCRELGCGAASGTPSGILYEPPAEKEQKVLIQSVSCTGTEDTLAQCEQEEVYDCSHDEDAGASCENPESSFSPVPEGVRLADGPGHCKGRVEVKHQNQWYTVCQTGWSLRAAKVVCRQLGCGRAVLTQKRSNKHAYGRKPIWLSQMSCSGREATLQDCPSGPWGKNTCNHDEDTWVECEDPFDLRLVGGDNLCSGRLEVLHKGVWGSVCDDNWGEKEDQVVCKQLGCGKSLSPSFRDRKCYGPGVGRIWLDNVRCSGEEQSLEQCQHRFWGFHDCTHQEDVAVICSG
notes: Expressed transiently in HEK293T cells; also called 2CS human rAIM
B2: mutant human AIM 2/3CS (cysteines 168 and 277 of SEQ ID NO: 1 substituted with serine) (other)
chain: B1 chain with C277S
notes: Expressed transiently in HEK293T cells
B3: mutant human AIM 3CS (cysteine 277 of SEQ ID NO: 1 substituted with serine) (other)
chain: B1 chain with S168C, C277S
notes: Expressed transiently in HEK293T cells; also called 3CS human rAIM
B4: wild-type human recombinant AIM (apoptosis inhibitor of macrophage, CD5L) (other)
chain: B1 chain with S168C
notes: Secreted from HEK293 / HEK293T cells; also called wild-type human rAIM; human rAIM
B5: wild-type mouse recombinant AIM (other)
chain: VQLVGGAHRCEGRVEVEHNGQWGTVCDDGWDRRDVAVVCRELNCGAVIQTPRGASYQPPASEQRVLIQGVDCNGTEDTLAQCELNYDVFDCSHEEDAGAQCENPDSDLLFIPEDVRLVDGPGHCQGRVEVLHQSQWSTVCKAGWNLQVSKVVCRQLGCGRALLTYGSCNKNTQGKGPIWMGKMSCSGQEANLRSCLLSRLENNCTHGEDTWMECEDPFELKLVGGDTPCSGRLEVLHKGSWGSVCDDNWGEKEDQVVCKQLGCGKSLHPSPKTRKIYGPGAGRIWLDDVNCSGKEQSLEFCRHRLWGYHDCTHKEDVEVICTDFDV
notes: Secreted from HEK293 / HEK293T cells; also called wild-type mouse rAIM; mouse rAIM
B6: mutant mouse AIM 2CS (cysteine 168 of SEQ ID NO: 2 substituted with serine) (other)
chain: B5 chain with C168S
notes: Expressed transiently in HEK293T cells; also called 2CS mouse rAIM

What was measured:
[1] = target: the molecule itself; test: self-association; non-reducing SDS-PAGE, Oriole staining
Description: To verify the possibility of the cysteine at amino acid number 168 and the cysteine at amino acid number 277 of wild-type human AIM shown in SEQ ID NO: 1 being involved in the multimerization of wild-type human rAIM, the inventors prepared mutant human rAIM in which the above-mentioned cysteines are substituted with different amino acids. First, to maintain the function of wild-type human rAIM, the amino acid to be used for substitution was studied. Since cysteine is hydrophilic (hydrogen bond can be formed), electric charge 0, and non-aromatic, serine, threonine, asparagine, glutamine were selected as 4 similar amino acids. […] The mutant human rAIM was prepared as follows. […] The purified and concentrated wild-type, 2CS, 3CS, 2/3CS human rAIM proteins, each 100 ng, were separated by SDS-PAGE under non-reducing conditions based on the difference in the molecular weights, Oriole staining was performed, and each human rAIM protein was detected.

[2] = target: the molecule itself; test: self-association; non-reducing SDS-PAGE, Oriole staining, 100 ng
[3] = target: the molecule itself; test: self-association; non-reducing SDS-PAGE, CBB staining
Description: The recovered culture supernatant was applied to an antibody column obtained by immobilizing mouse anti-human AIM monoclonal antibody (clone 7, autologously manufactured) on HiTrap NHS-activated HP column (GE Healthcare Life Sciences) to purify human rAIM. The human rAIM bound to the antibody column was eluted with 0.1 M glycine-HCl (pH2.5), and immediately neutralized with 1 M Tris-HCl (pH 8.5) to obtain human rAIM eluate. The buffer in the eluate was substituted with Dulbecco's Phosphate-Buffered Saline (DPBS) by using Amicon Ultra filter concentrators (Millipore) to perform concentration. The protein level of the human rAIM concentrate was quantified using Bcinchoninic acid (BCA) assay (Pierce), and the final concentration was adjusted to 2.0 mg/mL with DPBS. The wild-type human rAIM protein (1 μg) purified and concentrated as mentioned above was separated under non-reducing conditions by polyacrylamide gel electrophoresis (SDS-PAGE) based on the difference in the molecular weights, Coomassie Brilliant Blue (CBB) staining was performed, and wild-type human rAIM was detected.
The wild-type mouse rAIM was prepared as follows. […] The protein level of the mouse rAIM concentrate was quantified using BCA assay, and the final concentration was adjusted to 2.0 mg/mL with DPBS. […]

Protein	binding result [1]	binding result [2]	binding result [3]
B1	binds	–	–
B2	–	no binding	–
B3	binds	–	–
B4	–	–	binds
B5	–	–	binds
B6	–	no binding	–
